{
  "source": "patent US20020076693A1",
  "about": "(published 2002)",
  "binders": {"B1": {"name": "recombinant gp120 of HIV-1 SF2 (ligand)", "chain": "not shown", "notes": "domain: gp120; also called gp120 HIV-1 SF2; gp120-SF2"}},
  "target": "T1, recombinant soluble CD4 (UniProt P01730 26-396)",
  "T1 construct": "domain: soluble form of recombinant CD4",
  "assay": "BIAcore, soluble CD4; row shifted one column to the left",
  "data": [
    {"binder": "B1", "values": [
      {"measurement": "Ka", "result": "2.1e+08", "unit": "M⁻¹"},
      {"measurement": "koff", "result": 0.0056, "unit": "s⁻¹"},
      {"measurement": "kon", "result": "1.15e+06", "unit": "M⁻¹ s⁻¹"}
    ]}
  ]
}
